In the supplement of paper PMC10065799, “High-throughput profiling of sequence recognition by tyrosine kinases and SH2 domains using bacterial peptide display” (eLife, 2023):

How the values were obtained:
Hck = Hck (UniProt P08631); assay: phosphorylation enrichment, bacterial display (enrichment ratio); higher = better substrate or ligand; peptides without Tyr show the background
EPHB2 = EPHB2 (UniProt P29323); assay: as above
Fer (mouse) = assay: as above
Fyn = Fyn (UniProt P06241); assay: as above
EPHB1 = EPHB1 (UniProt P54762); assay: as above
Fes = Fes (UniProt P07332); assay: as above
AncSZ = assay: as above
FGFR1 = FGFR1 (UniProt P11362); assay: as above
c-Abl (mouse) = assay: as above
FGFR3 = FGFR3 (UniProt P22607); assay: as above
Jak2 = Jak2 (UniProt O60674); assay: as above
c-Src = assay: as above
MERTK = MERTK (UniProt Q12866); assay: as above
c-Src SH2 = assay: SH2 binding enrichment of the phosphorylated peptide, bacterial display (enrichment ratio); higher = better substrate or ligand; peptides without Tyr show the background
SHP2-C SH2 = assay: as above
Grb2 SH2 = Grb2 SH2 (UniProt P62993); assay: as above
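Wherever SH2 binding enrichment of the phosphorylated peptide, bacterial display is given: peptide library displayed on the E. coli surface as eCPX fusions, selected cells deep-sequenced, score is each peptide's frequency after selection divided by its frequency in the input.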
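Wherever phosphorylation enrichment, bacterial display is given: 11-residue human phosphosite peptides and single-mutation variants displayed on the E. coli surface, counted by deep sequencing, each peptide's frequency after selection divided by its frequency in the unselected input library; frequency after pTyr selection over input frequency; kinase dosed for 20-30% of maximal phosphorylation in three min.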

Chain of EPHB1 (P54762 whole entry, looked up): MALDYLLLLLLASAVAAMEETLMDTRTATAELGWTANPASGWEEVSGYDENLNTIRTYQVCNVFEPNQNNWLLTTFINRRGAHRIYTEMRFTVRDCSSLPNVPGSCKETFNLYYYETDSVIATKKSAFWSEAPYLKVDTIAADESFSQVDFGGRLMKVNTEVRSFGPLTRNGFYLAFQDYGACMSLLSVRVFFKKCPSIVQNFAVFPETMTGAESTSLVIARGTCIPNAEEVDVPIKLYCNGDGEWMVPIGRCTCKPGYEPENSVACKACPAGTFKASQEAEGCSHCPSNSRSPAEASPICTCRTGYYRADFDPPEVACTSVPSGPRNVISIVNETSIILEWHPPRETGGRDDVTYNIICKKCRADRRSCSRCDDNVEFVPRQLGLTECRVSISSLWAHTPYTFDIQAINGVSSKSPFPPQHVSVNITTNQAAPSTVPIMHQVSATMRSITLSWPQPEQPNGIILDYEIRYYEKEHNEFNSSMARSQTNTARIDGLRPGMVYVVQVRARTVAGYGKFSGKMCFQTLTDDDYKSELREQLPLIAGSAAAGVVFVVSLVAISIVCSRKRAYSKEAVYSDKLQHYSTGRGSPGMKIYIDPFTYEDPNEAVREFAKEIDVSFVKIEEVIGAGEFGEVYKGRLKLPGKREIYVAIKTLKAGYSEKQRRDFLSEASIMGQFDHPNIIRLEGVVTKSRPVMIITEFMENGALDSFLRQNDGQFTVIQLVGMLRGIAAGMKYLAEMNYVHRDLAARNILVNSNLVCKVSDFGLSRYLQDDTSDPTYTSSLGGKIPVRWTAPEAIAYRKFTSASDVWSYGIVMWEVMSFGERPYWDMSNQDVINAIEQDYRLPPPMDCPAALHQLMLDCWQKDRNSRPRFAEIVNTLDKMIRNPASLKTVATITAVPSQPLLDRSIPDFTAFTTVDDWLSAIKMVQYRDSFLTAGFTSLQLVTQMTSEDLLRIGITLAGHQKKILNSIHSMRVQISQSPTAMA
Chain of MERTK (Q12866 whole entry, looked up): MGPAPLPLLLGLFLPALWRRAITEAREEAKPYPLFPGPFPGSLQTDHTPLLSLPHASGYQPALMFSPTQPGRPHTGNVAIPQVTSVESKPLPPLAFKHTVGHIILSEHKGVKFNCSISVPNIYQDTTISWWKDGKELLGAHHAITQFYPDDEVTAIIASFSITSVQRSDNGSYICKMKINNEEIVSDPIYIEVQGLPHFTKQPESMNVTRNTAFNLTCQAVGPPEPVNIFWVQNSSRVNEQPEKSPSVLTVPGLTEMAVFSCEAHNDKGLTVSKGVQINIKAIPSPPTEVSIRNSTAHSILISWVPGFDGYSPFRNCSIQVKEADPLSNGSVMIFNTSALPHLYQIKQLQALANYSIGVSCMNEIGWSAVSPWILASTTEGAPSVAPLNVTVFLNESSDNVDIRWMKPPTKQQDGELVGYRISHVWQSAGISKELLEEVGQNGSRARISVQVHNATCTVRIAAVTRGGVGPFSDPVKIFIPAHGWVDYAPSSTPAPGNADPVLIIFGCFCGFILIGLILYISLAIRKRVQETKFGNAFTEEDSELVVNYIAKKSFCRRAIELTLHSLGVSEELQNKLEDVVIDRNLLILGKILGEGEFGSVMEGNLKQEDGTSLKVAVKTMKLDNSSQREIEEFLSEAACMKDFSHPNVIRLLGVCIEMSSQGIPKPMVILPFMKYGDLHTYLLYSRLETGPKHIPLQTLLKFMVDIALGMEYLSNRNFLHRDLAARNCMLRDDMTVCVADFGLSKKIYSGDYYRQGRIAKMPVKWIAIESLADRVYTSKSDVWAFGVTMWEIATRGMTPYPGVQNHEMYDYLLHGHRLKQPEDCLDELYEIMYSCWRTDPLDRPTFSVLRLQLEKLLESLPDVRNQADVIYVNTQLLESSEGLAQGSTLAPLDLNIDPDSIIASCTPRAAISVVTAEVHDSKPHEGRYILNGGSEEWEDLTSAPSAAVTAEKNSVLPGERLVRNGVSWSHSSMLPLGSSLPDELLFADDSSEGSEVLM
Chain of FGFR3 (P22607 whole entry, looked up): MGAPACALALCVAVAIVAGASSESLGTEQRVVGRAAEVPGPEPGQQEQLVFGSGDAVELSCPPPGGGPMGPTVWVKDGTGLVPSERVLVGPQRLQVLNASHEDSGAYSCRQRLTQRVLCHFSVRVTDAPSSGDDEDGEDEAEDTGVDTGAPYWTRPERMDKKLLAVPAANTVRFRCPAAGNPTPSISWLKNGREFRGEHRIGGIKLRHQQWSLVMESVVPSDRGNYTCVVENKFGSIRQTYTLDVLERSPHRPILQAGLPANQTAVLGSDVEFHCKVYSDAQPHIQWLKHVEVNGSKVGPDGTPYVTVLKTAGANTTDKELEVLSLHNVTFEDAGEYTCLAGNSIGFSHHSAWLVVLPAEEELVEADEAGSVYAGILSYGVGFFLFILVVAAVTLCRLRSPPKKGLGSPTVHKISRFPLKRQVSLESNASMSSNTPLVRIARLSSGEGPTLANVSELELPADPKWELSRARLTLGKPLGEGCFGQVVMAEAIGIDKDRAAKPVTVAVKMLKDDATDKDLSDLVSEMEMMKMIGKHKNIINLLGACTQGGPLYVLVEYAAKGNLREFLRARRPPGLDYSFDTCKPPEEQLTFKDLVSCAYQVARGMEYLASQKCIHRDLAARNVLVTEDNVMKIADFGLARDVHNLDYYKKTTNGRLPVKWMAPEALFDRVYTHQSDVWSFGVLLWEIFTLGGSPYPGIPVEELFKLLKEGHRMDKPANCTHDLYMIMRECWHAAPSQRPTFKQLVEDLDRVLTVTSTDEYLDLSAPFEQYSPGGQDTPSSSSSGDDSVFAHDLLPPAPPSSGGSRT
Chain of EPHB2 (P29323 whole entry, looked up): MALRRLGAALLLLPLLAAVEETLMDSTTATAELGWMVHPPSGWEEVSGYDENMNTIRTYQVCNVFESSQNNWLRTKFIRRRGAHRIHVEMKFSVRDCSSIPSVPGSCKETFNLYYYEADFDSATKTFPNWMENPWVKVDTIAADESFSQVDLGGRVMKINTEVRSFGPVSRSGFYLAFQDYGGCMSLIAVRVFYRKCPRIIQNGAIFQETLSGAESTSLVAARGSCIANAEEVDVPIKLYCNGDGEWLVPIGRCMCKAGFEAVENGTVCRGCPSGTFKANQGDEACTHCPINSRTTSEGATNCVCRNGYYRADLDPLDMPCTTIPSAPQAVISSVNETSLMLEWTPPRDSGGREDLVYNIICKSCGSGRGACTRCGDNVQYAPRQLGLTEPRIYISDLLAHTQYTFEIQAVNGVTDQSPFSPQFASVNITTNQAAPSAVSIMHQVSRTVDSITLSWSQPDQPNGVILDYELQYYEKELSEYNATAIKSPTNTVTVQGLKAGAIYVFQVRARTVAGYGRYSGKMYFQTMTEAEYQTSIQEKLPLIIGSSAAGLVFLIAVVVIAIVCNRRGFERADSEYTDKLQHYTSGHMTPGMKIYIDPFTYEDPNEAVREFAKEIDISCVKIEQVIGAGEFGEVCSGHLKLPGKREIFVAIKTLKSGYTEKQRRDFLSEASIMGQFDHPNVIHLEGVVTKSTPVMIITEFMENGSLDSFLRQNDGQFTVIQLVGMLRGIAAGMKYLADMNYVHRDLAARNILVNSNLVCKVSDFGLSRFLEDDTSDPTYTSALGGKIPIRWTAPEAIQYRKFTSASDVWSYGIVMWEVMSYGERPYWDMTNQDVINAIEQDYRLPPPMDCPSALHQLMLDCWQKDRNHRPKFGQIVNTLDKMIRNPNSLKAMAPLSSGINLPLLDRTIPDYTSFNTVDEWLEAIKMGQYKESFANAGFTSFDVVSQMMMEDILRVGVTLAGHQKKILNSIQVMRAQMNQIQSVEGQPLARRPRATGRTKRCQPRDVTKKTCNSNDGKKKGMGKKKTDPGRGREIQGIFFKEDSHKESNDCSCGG
Chain of FGFR1 (P11362 whole entry, looked up): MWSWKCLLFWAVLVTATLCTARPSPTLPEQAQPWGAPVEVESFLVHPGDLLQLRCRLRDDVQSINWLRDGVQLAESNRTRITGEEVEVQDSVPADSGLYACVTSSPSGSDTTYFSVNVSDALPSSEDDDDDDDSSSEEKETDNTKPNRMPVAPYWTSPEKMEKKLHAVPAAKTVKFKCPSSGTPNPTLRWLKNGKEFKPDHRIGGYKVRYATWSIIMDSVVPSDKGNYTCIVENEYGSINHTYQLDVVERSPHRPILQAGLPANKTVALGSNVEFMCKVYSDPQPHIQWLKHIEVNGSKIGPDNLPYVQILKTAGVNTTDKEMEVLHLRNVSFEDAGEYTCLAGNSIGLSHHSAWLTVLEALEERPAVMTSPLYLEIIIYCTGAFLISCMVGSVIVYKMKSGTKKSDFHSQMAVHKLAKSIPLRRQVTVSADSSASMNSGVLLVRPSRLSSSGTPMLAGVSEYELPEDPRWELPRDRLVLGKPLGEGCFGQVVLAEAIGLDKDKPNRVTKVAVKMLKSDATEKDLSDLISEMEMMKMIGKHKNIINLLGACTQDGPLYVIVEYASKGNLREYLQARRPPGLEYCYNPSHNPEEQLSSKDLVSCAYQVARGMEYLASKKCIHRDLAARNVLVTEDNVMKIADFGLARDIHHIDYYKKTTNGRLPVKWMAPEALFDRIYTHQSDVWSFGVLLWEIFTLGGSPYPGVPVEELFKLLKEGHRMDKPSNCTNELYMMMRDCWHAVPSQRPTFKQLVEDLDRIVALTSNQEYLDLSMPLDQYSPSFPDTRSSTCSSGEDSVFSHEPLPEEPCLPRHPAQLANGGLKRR
Chain of Grb2 SH2 (P62993 whole entry, looked up, the tested form may be a part): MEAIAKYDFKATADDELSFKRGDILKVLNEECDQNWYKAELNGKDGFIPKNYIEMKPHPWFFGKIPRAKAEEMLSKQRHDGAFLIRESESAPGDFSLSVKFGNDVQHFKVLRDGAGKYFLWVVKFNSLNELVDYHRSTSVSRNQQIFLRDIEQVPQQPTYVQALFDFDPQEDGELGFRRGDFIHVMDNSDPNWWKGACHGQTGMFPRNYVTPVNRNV

Row | Sequence | phosphorylation enrichment (Hck) | phosphorylation enrichment (EPHB2) | phosphorylation enrichment (Fer (mouse)) | phosphorylation enrichment (Fyn) | phosphorylation enrichment (EPHB1) | phosphorylation enrichment (Fes) | phosphorylation enrichment (AncSZ) | phosphorylation enrichment (FGFR1) | phosphorylation enrichment (c-Abl (mouse)) | phosphorylation enrichment (FGFR3) | phosphorylation enrichment (Jak2) | phosphorylation enrichment (c-Src) | phosphorylation enrichment (MERTK) | SH2 binding enrichment (c-Src SH2) | SH2 binding enrichment (SHP2-C SH2) | SH2 binding enrichment (Grb2 SH2)
1 | ATDLAYFLVRK [ASL_Y375_YF] | 0.686 | 0.872 | 0.509 | 0.725 | 0.73 | 1.6 | 1.73 | 1.26 | 1.2 | 1.32 | 2.72 | 0.728 | 0.642 | 1.18 | 1.84 | 2.04
2 | ATGGFYSFGGG [KRT24_Y120_YF] | 1.83 | 0.499 | 2.46 | 3.93 | 0.7 | 0.953 | 0.678 | 0.481 | 0.562 | 0.502 | 0.706 | 1.83 | 7.38 | 0.425 | 0.569 | 0.749
3 | ATKNDYWAMLA [WWOX_Y287_P282A] | 0.453 | 1.15 | 0.452 | 0.384 | 1.72 | 1 | 1.17 | 6.01 | 0.881 | 3.97 | 1.02 | 0.418 | 0.499 | 0.497 | 0.752 | 0.677
4 | AVLSLCASGRT [ACTA2_Y145_Y145C] | 0.448 | 0.639 | 0.545 | 0.366 | 0.58 | 0.955 | 0.898 | 0.505 | 0.606 | 0.592 | 0.959 | 0.357 | 0.402 | 0.488 | 0.857 | 0.807
5 | CDIPRYIVSQL [MAST2_Y461] | 0.482 | 0.577 | 0.454 | 0.506 | 0.535 | 1.02 | 1.04 | 0.497 | 0.816 | 0.618 | 1.04 | 0.442 | 0.501 | 0.406 | 0.654 | 0.744
6 | CEAVEYLESKQ [BTK_Y511_M509V] | 0.613 | 0.802 | 0.564 | 0.443 | 0.546 | 1.41 | 1.3 | 0.534 | 0.738 | 0.875 | 1.32 | 0.52 | 0.384 | 0.539 | 0.643 | 0.929
7 | CFSSEYHFVGG [CTSC_Y345_Y340C_YF] | 1.35 | 1.96 | 0.753 | 0.992 | 1.87 | 1.11 | 2.64 | 10.4 | 1.19 | 7.23 | 1.61 | 1.85 | 2.02 | 0.652 | 0.694 | 0.944
8 | CGTPEYRAPEI [PRKACA_Y205_L206R] | 0.549 | 0.605 | 0.582 | 0.517 | 0.687 | 1.35 | 1.17 | 0.603 | 3.88 | 0.825 | 0.984 | 0.432 | 0.467 | 0.52 | 0.735 | 0.767
9 | CGTPTYLAPEV [CHEK2_Y390] | 0.776 | 1.39 | 0.564 | 0.627 | 1.18 | 1.34 | 2.38 | 1.12 | 7.74 | 1.04 | 1.9 | 0.639 | 0.816 | 0.582 | 0.785 | 0.878
10 | CLAKMYFSAVD [CP_Y539_YF] | 0.527 | 0.592 | 0.506 | 0.519 | 0.662 | 1.26 | 1.04 | 0.519 | 1.03 | 0.765 | 1.06 | 0.563 | 0.414 | 0.606 | 0.608 | 0.895
11 | CLRIDYERVSQ [DSP_Y1542_R1537C] | 0.631 | 1.03 | 0.674 | 0.524 | 1.48 | 1.57 | 1.23 | 0.574 | 0.96 | 1.04 | 1.38 | 0.517 | 0.475 | 0.567 | 0.599 | 0.816
12 | CPTIHYNYMCN [TP53_Y234_T230P] | 0.429 | 0.607 | 0.621 | 0.594 | 0.603 | 0.999 | 0.843 | 0.54 | 0.634 | 0.586 | 0.776 | 0.462 | 0.462 | 8.28 | 4.49 | 1.02
13 | CRVEPYGENFN [APOA4_Y310_R305C] | 0.608 | 0.651 | 0.649 | 0.441 | 0.675 | 1.57 | 1.28 | 0.603 | 1.1 | 0.869 | 1.28 | 0.616 | 0.583 | 0.675 | 0.712 | 0.703
14 | CSRRFYQLTKL [AR_Y858] | 0.507 | 0.548 | 0.468 | 0.462 | 0.407 | 0.718 | 0.79 | 0.455 | 0.508 | 0.528 | 0.698 | 0.527 | 0.448 | 0.406 | 0.488 | 0.663
15 | CSRRLYQLTKL [AR_Y858_F857L] | 0.858 | 0.59 | 0.499 | 0.621 | 0.451 | 0.769 | 0.666 | 0.517 | 0.728 | 0.456 | 0.794 | 0.657 | 0.558 | 0.524 | 0.449 | 0.641
16 | CTAIHYNFMCN [TP53_Y234_T231A_YF] | 0.597 | 0.526 | 0.461 | 0.442 | 0.622 | 0.909 | 0.814 | 0.598 | 0.735 | 0.614 | 0.863 | 0.525 | 0.38 | 2.01 | 1.73 | 1.33
